In WO2022250107A1 (dated 2022):

Assays:
Test in all cases: cell-based or functional assay
[1] = target: S protein of SARS-CoV-2 alpha strain 1 (JPN/QK002/2020, Accession ID EPI_ISL_768526; on infectious virus) (SARS-CoV-2, UniProt P0DTC2 14-1273)
[2] = target: S protein of SARS-CoV-2 alpha strain 2 (Accession ID EPI_ISL_804007; on infectious virus) (SARS-CoV-2, UniProt P0DTC2 14-1273)
[3] = target: S protein of SARS-CoV-2 delta strain JPN/TKYTK1734/2021 (on infectious virus) (SARS-CoV-2, UniProt P0DTC2 14-1273)

Measured: 中和活性 IC50 (inhibition of infection of VeroE6/TMPRSS2 cells)

B1: EV053273 (antibody, V domains shown)
VH: QVQLVQSGAEVKEPGTSVKVSCKASGYIFTGYYIHWVRQAPGQGLEWMGWINPNSGGRNYTQKFQGRVTMTRDKSISTVYMELSGLRSDDTAIYYCARDNSWSTVQFCLDYWGQGTLVTVSS
VL: QSALTQPPSASGSPGQSVTISCTGTSSDVGSYNYVSWYQQYPGKAPKLMIYEVSKRPSGVPDRFSGSKSGNTASLTVSGLQAEDEADYYCSSYGGSNNLVFGGGTKLTVLG
≤ 10 ng/mL: all assays above
